The values that follow come from PMC3374832, “The Structure of the Oligomerization Domain of Lsr2 from Mycobacterium tuberculosis Reveals a Mechanism for Chromosome Organization and Protection” (PLoS ONE, 2012).

The stoichiometry N is the number of molecules, sites or subunits per partner or assembly.

The data set deals with the molecule itself. Put plainly: SEC; S75 16/60GL or 10/300GL column, 20 mM tris-HCl pH 7.5, 150 mM NaCl; fresh sample, 14-week-old sample and sample treated with trypsin (1:500, 5 min, room temperature). A general note: SEC sorts molecules by how far they enter the pores of the column.

B1: Lsr2 N-terminal dimerization domain, construct Nterm2 (residues 1-61), freshly purified (domain or fragment)
chain: MAKKVTVTLVDDFDGSGAADETVEFGLDGVTYEIDLSTKNATKLRGDLKQWVAAGRRVGGR
notes: Lsr2 (Rv3597c) of Mycobacterium tuberculosis H37Rv, residues 1-61; also called N-Lsr2; Lsr2 N-terminal domain; not shown: His6, N-terminal, kept
Turning to B1, the “stoichiometry N” value amounted to 2.
